Legend:
NK92^CIRB21 cells [1] = assay: Growth of NK92^CIRB21 cells in the presence of lactate dehydrogenase inhibitor R-GNE140 (cell count); assay type: cell-based, human; conditions: total cell count, FIG. 11, read-out: IC50 of R-GNE140 for inhibiting growth of NK92^CIRB21 cells
Method: (§1) The ability of NK92^CIRB and NK92^CIRB21 cells to grow in the presence of the lactate dehydrogenase inhibitor R-GNE140 was tested. Cells were incubated with increasing concentrations of R-GNE140 and total number of cells were counted.

NK92^CIRB cells [2] = assay: Growth of NK92^CIRB cells in the presence of lactate dehydrogenase inhibitor R-GNE140 (cell count); assay type: cell-based, human; conditions: total cell count, FIG. 11, read-out: IC50 of R-GNE140 for inhibiting growth of NK92^CIRB cells
Method: as §1

PC-3 cells = assay type: cell-based, human
Excerpt: Interleukins IL4, IL7, IL9, IL15 and IL21 belong to the same family as IL2, and use the same common IL2Rg. They all have their own private receptors, except for IL2 and IL15, which use IL2Rβ in addition to their own alpha receptors. […] Thus the entire cytoplasmic domain of IL21R was cloned then added Head-to-Tail to the C-terminal of IL2Rβ in the chimera CIRB. […] As shown herein, it was possible to emulate the activation signals from multiple cytokines that activate NK cells via different receptors by using only one ligand and a hybrid receptor.

NK92^CIRB21-icasp9 cells = assay: Killing of icasp9-expressing NK92 cells by dimerizer drug AP1093; assay type: cell-based, human
Method: (§2) L-Holin killing assays—Cells selected cell for L-Holin were tested in a 24 well plate using 32,000 cells per well. 24 hours later doxycycline was added at 1 μg/ml for 4-5 days. Cells selected for icasp9 were tested in a 24 well plate using 32,000 cells per well. 24 hours later dimerizer drug AP1093 was added at 2 or 10 nM for 4-5 days. Surviving cells were quantified using crustal violet assay as described in (Jounaidi et al, Cancer Research 2017).
Next, we examined whether high doses of AP1093 could completely kill NK92^CIRB21−icasp9 cells.

[3] = cited from earlier work
NK92^CIRB21 cells [4] = assay: L-Holin killing of NK92^CIRB21 cells (doxycycline induction, cell count); assay type: cell-based, human; conditions: NK92^CIRB21 cells expressing L-Holin, total cell count, FIG. 5B / FIG. 12
Method: NK92^CIRB21 pool selection—NK92^CIRB21 cells expressing L-Holin were selected with puromycin and NK92^CIRB21 cells expressing icasp9 and GFP were sorted by flow cytometry for GFP.
as §2
Mouse glioblastoma cell line GL261 was infected by a retrovirus expressing L-Holin. Clones were selected, L-Holin expression was induced with doxycycline, and cell viability was determined. […]
Expression of L-Holin in NK92^CIRB21+Holin cells was induced with doxycycline. Total number of cells were counted after doxycycline treatment. […] After 13 days of growth in the absence of doxycycline, total number of cells were counted. Untreated cells were counted as a control.
The ability of L-holin to trigger death of NK92^CIRB cells and NK92^CIRB21 cells was tested. […] Total number of cells were counted after 13 days of growth in the absence of doxycycline. Untreated cells were counted as a control. […]

NK92^CIRB cells [5] = assay: L-holin killing of NK92^CIRB cells (doxycycline induction, cell count); assay type: cell-based, human; conditions: total cell count, FIG. 12
Method: The ability of L-holin to trigger death of NK92^CIRB cells and NK92^CIRB21 cells was tested. L-bolin expression was induced in NK92^CIRB cells and NK92^CIRB21 cells with doxycycline. Cells were washed to remove doxycycline and then cells were cultured for 13 days. Total number of cells were counted after 13 days of growth in the absence of doxycycline. Untreated cells were counted as a control. […] This sensitivity is consistent with the reliance of NK92^CIRB21 cells on mitochondria, which are lysed by L-holin during cell killing.

glioblastoma GL261 cells = assay: L-Holin killing assay in GL261 clones (doxycycline induction, crystal violet); assay type: cell-based, mouse
Method: L-Holin GL261 and icasp9 GL261 clones were selected as single cells by extreme dilution in 96 well plates. Clones were grown and evaluated for their response to dox (L-Holin) or AP1093 (icasp9).
as §2
Mouse glioblastoma cell line GL261 was infected by a retrovirus expressing L-Holin. Clones were selected, L-Holin expression was induced with doxycycline, and cell viability was determined. Four clones were tested: 2 clones with high expression levels of L-Holin (Clone 1, Clone 5) and 2 clones with low expression levels of L-Holin (Clone 6, Clone 9).
We compared the ability of L-Holin to trigger cell death to that of icasp9 in GL261 cells. GL261 cells were infected by a retrovirus expressing L-Holin or a retrovirus expressing icasp9. Clones were selected, L-Holin expression was induced with doxycycline, and cell viability was determined. […]

O=C1N[C@](c2ccc(N3CCOCC3)cc2)(c2ccsc2)CC(O)=C1Sc1ccccc1Cl [R-GNE140]
IC50 (NK92^CIRB21 cells [1]): 10.6 µM | IC50 (NK92^CIRB cells [2]): 4.7 µM

IL21: soluble interleukin of the IL2 family added to NK92^CIRB cells
effect of soluble interleukin on cytotoxicity of NK92^CIRB against PC-3 cells (PC-3 cells): dramatically enhance cytotoxicity

CC[C@H](C(=O)N1CCCC[C@H]1C(=O)O[C@H](CCc1ccc(OC)c(OC)c1)c1cccc(OCC(=O)NCCNC(=O)COc2cccc([C@@H](CCc3ccc(OC)c(OC)c3)OC(=O)[C@@H]3CCCCN3C(=O)[C@@H](CC)c3cc(OC)c(OC)c(OC)c3)c2)c1)c1cc(OC)c(OC)c(OC)c1 [AP1093]
viability of NK92^CIRB21-icasp9 cells in the presence of AP1093 (NK92^CIRB21-icasp9 cells; 10 nM AP1093, FIG. 9A): remained viable | viability of NK92 cells expressing GFP and icasp9 in AP1093 (NK92^CIRB21-icasp9 cells; 10 nM AP1093, after 5 days, GFP detection by immunofluorescence, FIG. 9B): viable in 10 nM of AP1093 even after 5 days

IL2: immunostimulatory cytokine
half-life of IL2 in vivo [3]: less than 10 min

B1: L-Holin: pore-forming holin protein from bacteriophage, SEQ ID NO: 1, expressed under a tetracycline regulated promoter (protein)
chain: MPEKHDLLAAILAAKEQGIGAILAFAMAYLRGRYNGGAFTKTVIDATMCAIIAWFIRDLLDFAGLSSNLAYITSVFIGYIGTDSIGSLIKRFAAKKAGVEDGRNQ
modifications: Enterobacteriaceae
detectable cells after L-Holin induction and 13 days of growth in the absence of doxycycline (NK92^CIRB21 cells [4]): remained undetectable | detectable cells after L-Holin induction and 13 days of growth in the absence of doxycycline (NK92^CIRB21 cells [4]; listed as L-holin): undetectable | detectable cells after L-Holin induction and 13 days of growth in the absence of doxycycline (NK92^CIRB cells [5]): some NK92^CIRB cells survived and were detectable | triggering of cell death compared with icasp9 expressed at low levels (glioblastoma GL261 cells; GL261 cells, icasp9 Clone 2, 2 nM or 10 nM AP1903, FIGS. 7A-7B): more effective at triggering cell death than icasp9 expressed at low levels | cell death as a result of L-Holin expression (glioblastoma GL261 cells; GL261 clones with high (1, 5) and low (6, 9) L-Holin expression, doxycycline induced, FIG. 5A): majority, if not all, of GL261 cells died

— patent publication US20240207405A1, “IL2 TETHERED TO ITS RECEPTOR IL2RBETA AND PORE-FORMING PROTEINS AS A PLATFORM TO ENHANCE IMMUNE CELL ACTIVITY” (The General Hospital Corporation, priority 2021, published 2024)
